According to US8071548B2, “Method of reducing injury to mammalian cells” (Nono, Inc., priority 2002, dated 2011):
No end group written: not given here.

Assays:
[1] = target: NMDAR/PSD-95 interaction (Rattus norvegicus, UniProt P31016); assay type: binding; conditions: as compared with controls
[2] = system: cultured cortical neurons; test: Intracellular peptide delivery into cortical neuronal cultures (dansyl fluorescence, confocal microscopy); assay type: cell-based, mouse; conditions: bath applied to cultured cortical neurons; dansyl peptides 10 μM
Description: I bath applied these to cultured cortical neurons and observed their fluorescence by confocal microscopy. […] Tat-NR2B9c-dansyl was detectable in the neurons within 10 min of the start of the application and the peptide accumulated to a maximum level over the next 20 min (FIG. 5C). This level was maintained until the dansyl-Tat-NR2B9c was washed from the bath and the peptide remained detectable within the neurons for more than 5 hours thereafter.

NMDAR/PSD-95 interaction, sequence (P31016 whole entry): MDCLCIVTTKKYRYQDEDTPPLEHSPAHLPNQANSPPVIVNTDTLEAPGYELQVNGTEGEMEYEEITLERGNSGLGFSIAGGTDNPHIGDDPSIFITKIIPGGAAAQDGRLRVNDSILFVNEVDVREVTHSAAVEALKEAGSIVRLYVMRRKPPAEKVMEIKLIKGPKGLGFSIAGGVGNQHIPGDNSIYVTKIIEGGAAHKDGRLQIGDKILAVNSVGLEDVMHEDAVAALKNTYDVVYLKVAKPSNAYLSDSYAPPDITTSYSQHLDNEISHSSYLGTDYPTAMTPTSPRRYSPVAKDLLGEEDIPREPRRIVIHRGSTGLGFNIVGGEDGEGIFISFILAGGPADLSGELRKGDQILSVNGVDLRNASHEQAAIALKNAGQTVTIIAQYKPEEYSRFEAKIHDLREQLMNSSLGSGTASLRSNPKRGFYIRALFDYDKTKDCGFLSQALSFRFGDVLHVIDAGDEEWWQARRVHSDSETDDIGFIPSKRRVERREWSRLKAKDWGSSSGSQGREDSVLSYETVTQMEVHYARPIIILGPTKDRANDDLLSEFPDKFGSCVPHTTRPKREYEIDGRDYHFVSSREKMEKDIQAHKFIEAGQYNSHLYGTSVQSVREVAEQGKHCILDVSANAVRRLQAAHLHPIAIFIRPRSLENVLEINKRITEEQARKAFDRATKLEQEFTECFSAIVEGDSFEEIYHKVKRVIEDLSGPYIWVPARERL

Sequence | reduction of co-immunoprecipitation of PSD-95 with NR2B (optical density signal) [1] | entry into cells / intracellular fluorescence [2]
KALGISYGRKK [Tat38-48] | none of the three control peptides reduced | –
KLSSIESDV [NR2B9c] | – | did not enter cells
